From US20060240044A1

Target: human Vβ1.1 TcR (human)
Assay: cell-based or functional assay

Which results are given for recombinant SPE-M?
Percentage of Vβ enrichment (Vβ 1.1): 6.75%; Vβ cDNA clones from toxin stimulated T cells identified as Vβ1.1: 4 of 5 cDNAs; stimulation of T cells carrying the Vβ1.1 TcR, against ConA (further results): 70 times; stimulation of T cells carrying the Vβ1.1 TcR, against ConA (initial results): > 60 times

Which results are given for recombinant SPE-L?
Percentage of Vβ enrichment (Vβ 1.1): 8.44%; Vβ cDNA clones from toxin stimulated T cells identified as Vβ1.1: 5 of 5 cDNAs; stimulation of T cells carrying the Vβ1.1 TcR, against ConA (further results): > 80 times; stimulation of T cells carrying the Vβ1.1 TcR, against ConA (initial results): > 50 times
